Experimental findings from patent publication US20130123460A1, “PEPTIDE FOR IMPROVING BIOSTABILITY OF BIOACTIVE SUBSTANCE, AND BIOACTIVE SUBSTANCE HAVING IMPROVED BIOSTABILITY” (priority 2010, published 2013) are described below.

The target in the first experiment is endogenous SSTR 5 of MIN 6 cells (mouse) (UniProt O08858). Description: cell-based or functional assay.
Chain of endogenous SSTR 5 of MIN 6 cells (mouse) (O08858 whole entry): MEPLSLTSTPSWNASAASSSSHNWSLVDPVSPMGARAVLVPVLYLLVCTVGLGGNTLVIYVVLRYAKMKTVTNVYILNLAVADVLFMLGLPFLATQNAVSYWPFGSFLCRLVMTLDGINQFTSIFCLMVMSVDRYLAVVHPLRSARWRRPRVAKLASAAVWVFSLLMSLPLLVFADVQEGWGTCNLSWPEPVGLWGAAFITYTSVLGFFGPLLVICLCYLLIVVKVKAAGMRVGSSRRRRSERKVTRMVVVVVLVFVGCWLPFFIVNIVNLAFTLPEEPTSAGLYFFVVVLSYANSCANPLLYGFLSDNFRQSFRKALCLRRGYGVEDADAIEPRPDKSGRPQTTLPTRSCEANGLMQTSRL
Take SRIF(1-14)-NH2 (peptide): the Suppressibility of Insulin Secretion in MIN 6 Cells, Suppression rate of insulin secretion (%) relative to native SRIF was 100%.

Another experiment has as its target endogenous GLP-1 receptor of MIN 6 cells (mouse) (UniProt O35659). Description: cell-based or functional assay.
On to “[Ser8]-GLP-1(7-35)-GAm(31-44)-NH2 (peptide)”, for which the Insulin Secretion Capacity of GLP-1 Peptide Complex in MIN 6 Cells (% of control), at 1000 pM was 83 % of control.
Same read-out and setting: to “[Ser8]-GLP-1(7-35)-GAm(22-46)-NH2 (peptide)” belongs 100 % of control.
Regarding “[Ser8]-GLP-1(7-35)-GAm(1-46)-NH2 (peptide)”, the Insulin Secretion Capacity of GLP-1 Peptide Complex in MIN 6 Cells (% of control), at 1000 pM was 18 % of control and the Insulin Secretion Capacity of GLP-1 Peptide Complex in MIN 6 Cells (EC50 value) was over 1 nM.
With “[Ser8]-GLP-1(7-35)-GAm(21-46)-NH2 (peptide)”, the Insulin Secretion Capacity of GLP-1 Peptide Complex in MIN 6 Cells (% of control), at 1000 pM was 45 % of control.
As for “[Ser8]-GLP-1(7-35)-GAm(27-46)-NH2 (peptide)”, the Insulin Secretion Capacity of GLP-1 Peptide Complex in MIN 6 Cells (% of control), at 1000 pM is 106 % of control.
Turning to “[Ser8]-GLP-1(7-35)-GAm(37-44)-NH2 (peptide)”, the Insulin Secretion Capacity of GLP-1 Peptide Complex in MIN 6 Cells (% of control), at 1000 pM is 82 % of control.
For “[Ser8]-GLP-1(7-35)-GAm(17-46)-NH2 (peptide)”, the Insulin Secretion Capacity of GLP-1 Peptide Complex in MIN 6 Cells (% of control), at 1000 pM was 39 % of control and the Insulin Secretion Capacity of GLP-1 Peptide Complex in MIN 6 Cells (EC50 value) is over 1 nM.
Regarding [Ser8]-GLP-1(7-35)-GAm(33-44) (peptide), the Insulin Secretion Capacity of GLP-1 Peptide Complex in MIN 6 Cells (% of control), at 1000 pM is 89 % of control.
For the substance “[Ser8]-GLP-1(7-35)-GAm(25-46)-NH2 (peptide)”, the Insulin Secretion Capacity of GLP-1 Peptide Complex in MIN 6 Cells (% of control), at 1000 pM is 104 % of control.
Same read-out and setting: to “[Ser8]-GLP-1(7-35)-GAm(32-44)-NH2 (peptide)” belongs 109 % of control.
The same measure, in the same setting: the figure for “[Ser8]-GLP-1(7-35)-GAm(28-44)-NH2 (peptide)” is 105 % of control.
For “[Ser8]-GLP-1(7-35)-GAm(38-42)-NH2 (peptide)”, the Insulin Secretion Capacity of GLP-1 Peptide Complex in MIN 6 Cells (% of control), at 1000 pM was 125 % of control and the Insulin Secretion Capacity of GLP-1 Peptide Complex in MIN 6 Cells (EC50 value) is 0.5 nM.
In the case of [Ser8]-GLP-1(7-35)-GAm(37-44) (peptide), the Insulin Secretion Capacity of GLP-1 Peptide Complex in MIN 6 Cells (% of control), at 1000 pM is 98 % of control.
On the same count and under the same terms, to “[Ser8]-GLP-1(7-35)-GAm(28-42)-NH2 (peptide)” belongs 105 % of control; to “[Ser8]-GLP-1(7-35)-GAm(35-44)-NH2 (peptide)”, 115 % of control.
Turning to “[Ser8]-GLP-1(7-35)-GAm(33-44)-NH2 (peptide)”, the Insulin Secretion Capacity of GLP-1 Peptide Complex in MIN 6 Cells (% of control), at 1000 pM was 118 % of control.
Still for that read-out and setting: to “[Ser8]-GLP-1(7-35)-GAm(30-42)-NH2 (peptide)” belongs 85 % of control; to “[Ser8]-GLP-1(7-35)-GAm(38-44)-NH2 (peptide)”, 120 % of control.
As for [Ser8]-GLP-1(7-35)-GAm(28-44) (peptide), the Insulin Secretion Capacity of GLP-1 Peptide Complex in MIN 6 Cells (% of control), at 1000 pM is 139 % of control.

The next experiment deals with endogenous VIP receptor of SUP-T1 cells (human). The experiment in a line: cell-based or functional assay.
Consider VIP(1-28)-GAm(32-44)-NH2 (peptide), for which the cAMP Productivity in SUP-T1 Cells, Activity Intensity (%) relative to native VIP was determined as 85%.
For VIP(1-28)-GAm(37-44)-NH2 (peptide), the cAMP Productivity in SUP-T1 Cells, Activity Intensity (%) relative to native VIP was found to be 81%.
The same measure, in the same setting: the figure for VIP(1-28)-GAm(28-44)-NH2 (peptide) is 67%.
